Test results taken from patent publication US20210214459A1 (Novartis, published 2021).

T1: human CD73 expressed on the cell surface (human, UniProt P21589 27-549)
T1 construct: whole, on cells; also called surface CD73
T1 sequence (looked up): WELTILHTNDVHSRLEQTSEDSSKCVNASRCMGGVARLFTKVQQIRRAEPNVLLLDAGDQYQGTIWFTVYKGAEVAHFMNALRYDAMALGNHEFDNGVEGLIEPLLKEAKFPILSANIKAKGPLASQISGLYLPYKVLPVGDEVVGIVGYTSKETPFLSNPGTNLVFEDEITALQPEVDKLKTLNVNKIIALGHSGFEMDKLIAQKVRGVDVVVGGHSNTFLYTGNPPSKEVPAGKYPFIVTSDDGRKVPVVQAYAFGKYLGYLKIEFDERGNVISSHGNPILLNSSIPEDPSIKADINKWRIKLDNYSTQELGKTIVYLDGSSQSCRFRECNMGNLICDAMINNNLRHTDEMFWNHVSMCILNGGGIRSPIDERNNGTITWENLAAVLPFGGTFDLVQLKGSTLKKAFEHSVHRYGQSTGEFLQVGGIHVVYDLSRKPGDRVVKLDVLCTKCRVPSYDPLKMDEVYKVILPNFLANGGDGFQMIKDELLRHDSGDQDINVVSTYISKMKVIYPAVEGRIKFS


molecular target: T1, human CD73 expressed on the cell surface; assay: flow cytometry, biotinylated antibody on CD8+ T cells in human whole blood, streptavidin-APC detection
Description: Whole blood target engagement was assessed by flow cytometry using whole blood from healthy human donors. Briefly, biotinylated antibodies were incubated with whole blood for 30 minutes prior to red blood cell lysis and fixation. Fixed cells were stained for CD3 and CD8 to identify CD8+ T cells, and streptavidin-APC to detect biotin. After staining, the cell were washed and subjected to flow cytometry analysis.

Row | EC50 (read off the curve) [ng/mL] | Binder
1 | ~6 | 374.B (antibody, human IgG4 S228P, kappa, V domains shown, IgG4 S228P/L235E format; Heavy chain entry ends in X, wherein X is K or absent; Biotinylated in the whole blood assay) VH: EVQLLESGGGLVQPGGSLRLSCAASGFTFSYNAMSWVRQAPGKGLEWVSSISGTGGSTYYADSVKGRFTISRDNSKNTLYLQMNSLRAEDTAVYYCARGGLYGSGSYLSDFDLWGRGTLVTVSS VL: EIVLTQSPATLSVSPGERATLSCRASQSVGSNLAWYQQKPGQAPRLLIYGASTRATGIPARFSGSGSGTEFTLTISSLQSEDFAVYYCQQHNAFPYTFGGGTKVEIKR
2 | ~5 | 377.B (antibody, IgG4, V domains shown, IgG4 S228P/L235E format (.B construct); Biotinylated in the whole blood assay) VH: EVQLLESGGGLVQPGGSLRLSCAASGFTFKSYAMSWVRQAPGKGLEWVSAISGSGSYTYYADSVKGRFTISRDNSKNTLYLQMNSLRAEDTAVYYCARGGLYGSGSYLSDFDLWGRGTLVTVSS VL: EIVLTQSPATLSVSPGERATLSCRASQSVGSNLAWYQQKPGQAPRLLIYGASTRATGIPARFSGSGSGTEFTLTISSLQSEDFAVYYCQQHNAFPYTFGGGTKVEIK
3 | ~6 | 379.B (antibody, human IgG4 S228P, kappa, V domains shown, IgG4 S228P/L235E format; Heavy chain entry ends in X, wherein X is K or absent; Biotinylated in the whole blood assay) VH: EVQLLESGGGLVQPGGSLRLSCAASGFTFSRYAMSWVRQAPGKGLEWVSSISGTGGSTYYADSVKGRFTISRDNSKNTLYLQMNSLRAEDTAVYYCARGGLYGSGSYLSDFDLWGRGTLVTVSS VL: EIVLTQSPATLSVSPGERATLSCRASQSVGSNLAWYQQKPGQAPRLLIYGASTRATGIPARFSGSGSGTEFTLTISSLQSEDFAVYYCQQHNAFPYTFGGGTKVEIKR
4 | ~5 | 356.B (antibody, human IgG4 S228P, kappa, V domains shown, IgG4 S228P/L235E format; Heavy chain entry ends in X, wherein X is K or absent; Biotinylated in the whole blood assay) VH: QVQLQESGPGLVKPSETLSLTCTVSGGSIEGRYWSWIRQPPGKGLEWIGYIYGSGSTKYNPSLKSRVTISVDTSKNQFSLKLSSVTAADTAVYYCARESQESPYNNWFDPWGQGTLVTVSS VL: DIQMTQSPSSVSASVGDRVTITCRASQGISSWLAWYQQKPGKAPKLLIYAASSLQSGVPSRFSGSGSGTDFTLTISSLQPEDFATYYCQQGNSFPRTFGGGTKVEIKR
5 | ~4 | 358.B (antibody, human IgG4 S228P, kappa, V domains shown, IgG4 S228P/L235E format; Heavy chain entry ends in X, wherein X is K or absent; Biotinylated in the whole blood assay) VH: QVQLQESGPGLVKPSETLSLTCTVSGGSISGRYWSWIRQPPGKGLEWIGYIYGTGSTNYNPSLKSRVTISVDTSKNQFSLKLSSVTAADTAVYYCARESQESPYNNWFDPWGQGTLVTVSS VL: DIQMTQSPSSVSASVGDRVTITCRASQGISSWLAWYQQKPGKAPKLLIYAASSLQSGVPSRFSGSGSGTDFTLTISSLQPEDFATYYCQQGNSFPRTFGGGTKVEIKR
6 | ~5 | 350.B (antibody, human IgG4 S228P, kappa, IgG4 S228P/L235E format; Heavy chain entry ends in X, wherein X is K or absent; Biotinylated in the whole blood assay) heavy: not shown light: DIQMTQSPSSVSASVGDRVTITCRASQGISSWLAWYQQKPGKAPKLLIYAASSLQSGVPSRFSGSGSGTDFTLTISSLQPEDFATYYCQQGNSFPRTFGGGTKVEIKRTVAAPSVFIFPPSDEQLKSGTASVVCLLNNFYPREAKVQWKVDNALQSGNSQESVTEQDSKDSTYSLSSTLTLSKADYEKHKVYACEVTHQGLSSPVTKSFNRGEC
